Our source for the KIR occupancy values is US20130251711A1.

Test [1] concerns the target KIR on patient NK cells (KIR2D receptors; KIR2DL1 and KIR2DL2/3). Briefly: receptor occupancy on patient NK cells by flow cytometry after a single i.v. dose of 0.0003 mg/kg (AML dose-escalation trial).
For test [2] the target is unchanged. The experiment in a line: receptor occupancy on patient NK cells by flow cytometry after a single i.v. dose of 0.003 mg/kg (AML dose-escalation trial). A general note: A flow cytometer gives signals particle by particle.

As for anti-KIR antibody 1-7F9, the KIR occupancy amounted to 50% in test [1] and 90% in test [2].
